The record followed here is the supplement of paper PMC3353916.

This data set deals with Sindbis virus TE/5'2J-GFP. Nature of the data set: percent infected (GFP+ in RFP+ ISG-expressing cells); higher = more infection (less antiviral activity). The procedure: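 Confirmatory testing of 87 ISGs. Triplicate wells of BHK/HA-Zeo (control) or BHK/NZAP-Zeo (ZAP) cells were transduced with lentiviruses co-expressing a human ISG plus TagRFP, then infected 48 h later with SINV TE/5'2J-GFP (moi 5). The % GFP+ cells among RFP+ cells was measured by flow cytometry at 8 h post infection. Fluc lentivirus served as control. Three independent experiments.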

[1] abbreviates: experiment: confirmatory screen 1, BHK/HA-Zeo (control).
Where [2] appears, read: experiment: confirmatory screen 1, BHK/NZAP-Zeo (ZAP).
[3] abbreviates: experiment: confirmatory screen 2, BHK/HA-Zeo (control).
The mark [4] stands for this setting: experiment: confirmatory screen 2, BHK/NZAP-Zeo (ZAP).
Setting [5] is: experiment: confirmatory screen 3, BHK/HA-Zeo (control).
[6] abbreviates: experiment: confirmatory screen 3, BHK/NZAP-Zeo (ZAP).

± gives the standard deviation of the averaged measurements.
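Also: Interferon-defective BHK-21 derivatives, ZAP line overexpressing the rat ZAP N-terminal zinc finger domain fused to Zeocin resistance, GFP scored within live singlet TagRFP+ cells.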

“MSEIRKDTLKAILLELECHFTWNLLKEDIDLFEVEDTIGQQLEFLTTKSRLALYNLLAYVKHLKGQNKDALECLEQAEEIIQQEHSDKEEVRSLVTWGNYAWVYYHMDQLEEAQKYTGKIGNVCKKLSSPSNYKLECPETDCEKGWALLKFGGKYYQKAKAAFEKALEVEPDNPEFNIGYAITVYRLDDSDREGSVKSFSLGPLRKAVTLNPDNSYIKVFLALKLQDVHAEAEGEKYIEEILDQISSQPYVLRYAAKFYRRKNSWNKALELLKKALEVTPTSSFLHHQMGLCYRAQMIQIKKATHNRPKGKDKLKVDELISSAIFHFKAAMERDSMFAFAYTDLANMYAEGGQYSNAEDIFRKALRLENITDDHKHQIHYHYGRFQEFHRKSENTAIHHYLEALKVKDRSPLRTKLTSALKKLSTKRLCHNALDVQSLSALGFVYKLEGEKRQAAEYYEKAQKIDPENAEFLTALCELRLSI [IFIT5]”: the percent infected was found to be 81.6 ± 2.9% under setting [1]; 50.4 ± 1.2% under setting [2]; 95.17 ± 0.24% under setting [3]; 95.34 ± 0.45% under setting [4]; 88.13 ± 0.37% under setting [5]; 90.56 ± 0.79% under setting [6].

As to “MNTIVFNKLSGAVLFEDGGASERERGGRPYSGVLDSPHARPEVGIPDGPPLKDNLGLRHRRTGARQNGGKVRHKRQALQDMARPLKQWLYKHRDNPYPTKTEKILLALGSQMTLVQVSNWFANARRRLKNTVRQPDLSWALRIKLYNKYVQGNAERLSVSSDDSCSEDGENPPRTHMNEGGYNTPVHHPVIKSENSVIKAGVRPESRASEDYVAPPKYKSSLLNRYLNDSLRHVMATNTTMMGKTRQRNHSGSFSSNEFEEELVSPSSSETEGNFVYRTDTLENGSNKGESAANRKGPSKDDTYWKEINAAMALTNLAQGKDKLQGTTSCIIQKSSHIAEVKTVKVPLVQQF [MKX]”, the percent infected runs as follows: under setting [1], 95 ± 2.1%; under setting [2], 82.42 ± 0.67%; under setting [3], 95.17 ± 0.2%; under setting [4], 92.86 ± 0.56%; under setting [5], 79 ± 1.7%; under setting [6], 86.15 ± 0.099%.

As for “MEKLLCFLVLTSLSHAFGQTDMSRKAFVFPKESDTSYVSLKAPLTKPLKAFTVCLHFYTELSSTRGYSIFSYATKRQDNEILIFWSKDIGYSFTVGGSEILFEVPEVTVAPVHICTSWESASGIVEFWVDGKPRVRKSLKKGYTVGAEASIILGQEQDSFGGNFEGSQSLVGDIGNVNMWDFVLSPDEINTIYLGGPFSPNVLNWRALKYEVQGEVFTKPQLWP [CRP]”, the percent infected reads like this: under setting [1], 94.7 ± 1.9%; under setting [2], 71.6 ± 4%; under setting [3], 95.07 ± 0.27%; under setting [4], 94.33 ± 0.72%; under setting [5], 89.4 ± 1.5%; under setting [6], 92.68 ± 0.15%.

Take “MDFKIEHTWDGFPVKHEPVFIRLNPGDRGVMMDISAPFFRDPPAPLGEPGKPFNELWDYEVVEAFFLNDITEQYLEVELCPHGQHLVLLLSGRRNVWKQELPLSFRMSRGETKWEGKAYLPWSYFPPNVTKFNSFAIHGSKDKRSYEALYPVPQHELQQGQKPDFHCLEYFKSFNFNTLLGEEWKQPESDLWLIEKCDI [C4orf33]”: the percent infected runs as follows: under setting [1], 96.1 ± 1.3%; under setting [2], 85.8 ± 1.1%; under setting [3], 96.38 ± 0.37%; under setting [4], 94.84 ± 0.39%; under setting [5], 93.81 ± 0.1%; under setting [6], 93.56 ± 0.3%.

As for “MSSAIERKSLDPSEEPVDEVLQIPPSLLTCGGCQQNIGDRYFLKAIDQYWHEDCLSCDLCGCRLGEVGRRLYYKLGRKLCRRDYLRLFGQDGLCASCDKRIRAYEMTMRVKDKVYHLECFKCAACQKHFCVGDRYLLINSDIVCEQDIYEWTKINGMI [LMO2]”, the percent infected is 95.7 ± 1.2% under setting [1]; 86.1 ± 1.6% under setting [2]; 95.94 ± 0.44% under setting [3]; 94.18 ± 0.17% under setting [4]; 92.69 ± 0.33% under setting [5]; 92.61 ± 0.82% under setting [6].

As for BTN3A3, the percent infected under setting [1] was determined as 82.3 ± 4%; the percent infected under setting [2] amounted to 57.5 ± 0.65%; the percent infected under setting [3] is 93.48 ± 0.51%; the percent infected under setting [4] was 95.55 ± 0.27%; the percent infected under setting [5] is 90.09 ± 0.83%; the percent infected under setting [6] was determined as 89.4 ± 1.4%.

“MASGRARCTRKLRNWVVEQVESGQFPGVCWDDTAKTMFRIPWKHAGKQDFREDQDAAFFKAWAIFKGKYKEGDTGGPAVWKTRLRCALNKSSEFKEVPERGRMDVAEPYKVYQLLPPGIVSGQPGTQKVPSKRQHSSVSSERKEEEDAMQNCTLSPSVLQDSLNNEEEGASGGAVHSDIGSSSSSSSPEPQEVTDTTEAPFQGDQRSLEFLLPPEPDYSLLLTFIYNGRVVGEAQVQSLDCRLVAEPSGSESSMEQVLFPKPGPLEPTQRLLSQLERGILVASNPRGLFVQRLCPIPISWNAPQAPPGPGPHLLPSNECVELFRTAYFCRDLVRYFQGLGPPPKFQVTLNFWEESHGSSHTPQNLITVKMEQAFARYLLEQTPEQQAAILSLV [IRF9]”: the percent infected is, setting by setting: under setting [1], 95.7 ± 1.1%; under setting [2], 77.9 ± 2.2%; under setting [3], 95.77 ± 0.51%; under setting [4], 95.5 ± 0.37%; under setting [5], 94.29 ± 0.52%; under setting [6], 92.97 ± 0.35%.

In turn, “MPITRMRMRPWLEMQINSNQIPGLIWINKEEMIFQIPWKHAAKHGWDINKDACLFRSWAIHTGRYKAGEKEPDPKTWKANFRCAMNSLPDIEEVKDQSRNKGSSAVRVYRMLPPLTKNQRKERKSKSSRDAKSKAKRKSCGDSSPDTFSDGLSSSTLPDDHSSYTVPGYMQDLEVEQALTPALSPCAVSSTLPDWHIPVEVVPDSTSDLYNFQVSPMPSTSEATTDEDEEGKLPEDIMKLLEQSEWQPTNVDGKGYLLNEPGVQPTSVYGDFSCKEEPEIDSPGGDIGLSLQRVFTDLKNMDATWLDSLLTPVRLPSIQAIPCAP [IRF1]” had a percent infected under setting [1] of 67.2 ± 42%; a percent infected under setting [2] of 10.7 ± 6.3%; a percent infected under setting [3] of 61.6 ± 1.6%; a percent infected under setting [4] of 1.14 ± 0.73%; a percent infected under setting [5] of 29.2 ± 22%; a percent infected under setting [6] of 0.16 ± 0.079%.

Regarding “MSIMDHSPTTGVVTVIVILIAIAALGALILGCWCYLRLQRISQSEDEESIVGDGETKEPFLLVQYSAKGPCVERKAKLMTPNGPEVHG [SNN]”, the percent infected under setting [1] worked out at 95.8 ± 1.9%; the percent infected under setting [2] amounted to 86.47 ± 0.82%; the percent infected under setting [3] worked out at 96.15 ± 0.19%; the percent infected under setting [4] worked out at 95.59 ± 0.2%; the percent infected under setting [5] was found to be 93.27 ± 0.64%; the percent infected under setting [6] turned out to be 92.87 ± 0.32%.

On to “MASVAVDPQPSVVTRVVNLPLVSSTYDLMSSAYLSTKDQYPYLKSVCEMAENGVKTITSVAMTSALPIIQKLEPQIAVANTYACKGLDRIEERLPILNQPSTQIVANAKGAVTGAKDAVTTTVTGAKDSVASTITGVMDKTKGAVTGSVEKTKSVVSGSINTVLGSRMMQLVSSGVENALTKSELLVEQYLPLTEEELEKEAKKVEGFDLVQKPSYYVRLGSLSTKLHSRAYQQALSRVKEAKQKSQQTISQLHSTVHLIEFARKNVYSANQKIQDAQDKLYLSWVEWKRSIGYDDTDESHCAEHIESRTLAIARNLTQQLQTTCHTLLSNIQGVPQNIQDQAKHMGVMAGDIYSVFRNAASFKEVSDSLLTSSKGQLQKMKESLDDVMDYLVNNTPLNWLVGPFYPQLTESQNAQDQGAEMDKSSQETQRSEHKTH [ADFP]”, for which the percent infected reads like this: under setting [1], 91.4 ± 2%; under setting [2], 68 ± 2.8%; under setting [3], 96.84 ± 0.14%; under setting [4], 95.665 ± 0.052%; under setting [5], 88.3 ± 0.9%; under setting [6], 89.1 ± 1.9%.

Regarding “MSSENCFVAENSSLHPESGQENDATSPHFSTRHEGSFQVPVLCAVMNVVFITILIIALIALSVGQYNCPGQYTFSMPSDSHVSSCSEDWVGYQRKCYFISTVKRSWTSAQNACSEHGATLAVIDSEKDMNFLKRYAGREEHWVGLKKEPGHPWKWSNGKEFNNWFNVTGSDKCVFLKNTEVSSMECEKNLYWICNKPYK [CD69]”, the percent infected under setting [1] worked out at 95.94 ± 0.47%; the percent infected under setting [2] amounted to 68.2 ± 4.8%; the percent infected under setting [3] came out at 94.01 ± 0.54%; the percent infected under setting [4] was found to be 94.27 ± 0.39%; the percent infected under setting [5] was 91.7 ± 1.1%; the percent infected under setting [6] stood at 93.02 ± 0.27%.

Consider “MPVERMRMRPWLEEQINSNTIPGLKWLNKEKKIFQIPWMHAARHGWDVEKDAPLFRNWAIHTGKHQPGVDKPDPKTWKANFRCAMNSLPDIEEVKDKSIKKGNNAFRVYRMLPLSERPSKKGKKPKTEKEDKVKHIKQEPVESSLGLSNGVSDLSPEYAVLTSTIKNEVDSTVNIIVVGQSHLDSNIENQEIVTNPPDICQVVEVTTESDEQPVSMSELYPLQISPVSSYAESETTDSVPSDEESAEGRPHWRKRNIEGKQYLSNMGTRGSYLLPGMASFVTSNKPDLQVTIKEESNPVPYNSSWPPFQDLPLSSSMTPASSSSRPDRETRASVIKKTSDITQARVKSC [IRF2]”, for which the percent infected is 81 ± 3.7% under setting [1]; 2.58 ± 0.4% under setting [2]; 94.34 ± 0.74% under setting [3]; 60.4 ± 1.6% under setting [4]; 89.4 ± 1.2% under setting [5]; 39.2 ± 2.8% under setting [6].

As for “MERISAFFSSIWDTILTKHQEGIYNTICLGVLLGLPLLVIITLLFICCHCCWSPPGKRGQQPEKNKKKKKKKKKKDEEDLWISAQPKLLQMEKRPSLPV [KIAA0040]”, the percent infected under setting [1] is 93.9 ± 2.6%; the percent infected under setting [2] is 62.7 ± 0.84%; the percent infected under setting [3] was 96.75 ± 0.12%; the percent infected under setting [4] is 95.133 ± 0.042%; the percent infected under setting [5] stood at 87.2 ± 1.7%; the percent infected under setting [6] came out at 87.8 ± 1.6%.

Substance “MAGPERWGPLLLCLLQAAPGRPRLAPPQNVTLLSQNFSVYLTWLPGLGNPQDVTYFVAYQSSPTRRRWREVEECAGTKELLCSMMCLKKQDLYNKFKGRVRTVSPSSKSPWVESEYLDYLFEVEPAPPVLVLTQTEEILSANATYQLPPCMPPLDLKYEVAFWKEGAGNKTLFPVTPHGQPVQITLQPAASEHHCLSARTIYTFSVPKYSKFSKPTCFLLEVPEANWAFLVLPSLLILLLVIAAGGVIWKTLMGNPWFQRAKMPRALDFSGHTHPVATFQPSRPESVNDLFLCPQKELTRGVRPTPRVRAPATQQTRWKKDLAEDEEEEDEEDTEDGVSFQPYIEPPSFLGQEHQAPGHSEAGGVDSGRPRAPLVPSEGSSAWDSSDRSWASTVDSSWDRAGSSGYLAEKGPGQGPGGDGHQESLPPPEFSKDSGFLEELPEDNLSSWATWGTLPPEPNLVPGGPPVSLQTLTFCWESSPEEEEEARESEIEDSDAGSWGAESTQRTEDRGRTLGHYMAR [IL28RA]” came in with a percent infected under setting [1] of 11.9 ± 5.4%; a percent infected under setting [2] of 1.35 ± 0.22%; a percent infected under setting [3] of 33 ± 1.4%; a percent infected under setting [4] of 11.4 ± 0.84%; a percent infected under setting [5] of 21.4 ± 1.5%; a percent infected under setting [6] of 8.02 ± 0.72%.
